Measured values reported in patent CN114904015A (JIANGSU MAIWEIKANG NEW DRUG RES AND DEVELOPMENT CO LTD, dated 2022).

Experiments:
[1] = target: T1, 人CLDN18.2 (human CLDN18.2), expressed on the cell surface (human, UniProt P56856-2 1-261); assay: FACS (MFI) on CHO/CLDN18.2 cells, from 5 μg/mL in 3-fold dilutions
T1 construct: whole, on cells; also called CHOK1细胞表面稳定表达人CLDN18.2; CHO/CLDN18.2

[2] = target: T1, 人CLDN18.2 (human CLDN18.2), expressed …; assay: cell-based or functional assay
[3] = target: T1, 人CLDN18.2 (human CLDN18.2), expressed …; assay: cell-based or functional assay; remark: listed apart in the source

B1: 8k13-hz35 (antibody, IgG1, V domains shown)
VH: EVQLVQSGAEVKKPGSSVKVSCKASGYAFSNYWMNWVRQAPGQGLEWMGQIYPGSGDTKYSGKFQSRVTITADKSTSTAYMELSSLRSEDTAVYYCARFYYGNVMDYWGQGTLVTVSS
VL: DIVLTQSPDSLAVSLGERATINCKSSQTLLSGGNQKNYLTWYQQKPGQPPKLLIYWASTRESGVPDRFSGSGSGTDFTLTISSLQAEDVAVYYCQQGYSYPLTFGQGTKLEIK
notes: Humanised IgG1 / kappa; also called 本发明的裸抗-2; hz8k13-hz35; not shown: human kappa light chain constant region
binding result [1]: binds

B2: 16k15-hz35 (antibody, IgG1, V domains shown)
VH: EVQLVESGGGLVQPGGSLRLSCAGSGITLSTYAMSWVRQAPGKGLEWVSSIISGGITYYLDSVKGRFTISRDNAKNTLYLQMNSLRAEDTAVYYCARKYHGNALDYWGQGTLVTVSS
VL: DIVMTQSPDSLAVSLGERATINCKSSQSLLSSGNQRNYLTWYQQKPGQPPKKLIYWASTRESGVPDRFSGSGSGTDFTLTISSLQAEDVAVYYCQQNYFYPLTFGQGTKLEIK
notes: Humanised IgG1 / kappa; also called 本发明的裸抗-1; not shown: human kappa light chain constant region
binding result [1]: binds

B3: 16k15-hz22 (antibody, V domains shown, not shown: large carriers)
VH: EVQLVESGGGLVQPGGSLRLSCAGSGITLSTYAMSWVRQAPGKGLEWVSSIISGGITYYLDSVKGRFTISRDNAKNTLYLQMSSLRAEDTAVYYCARKYHGNALDYWGQGTLVTVSS
VL: DIVMTQSPDSLAVSLGERATINCKSSQSLLSSGNQRNYLTWYQQKPGQPPKKLIYWASTRESGVPDRFSGSGSGTDFTLTISSLQAEDLAVYYCQNNYFYPLTFGQGTKLEIK
ADCC reporter (Jurkat FcγRIIIa-FcεRIaγ / NFAT-luciferase) EC50(nM), target-expressing BxPC3 cells [2]: 0.176 nM
ADCC reporter (Jurkat FcγRIIIa-FcεRIaγ / NFAT-luciferase) EC50(nM), target-expressing CHOK1 cells [2]: 0.712 nM
ADCC reporter (Jurkat FcγRIIIa-FcεRIaγ / NFAT-luciferase) EC50(nM), target-expressing NCI-N87 cells [2]: 0.0677 nM
CDC EC50(nM), BxPC3 cells stably expressing human CLDN18.2 [3]: 12.2 nM
CDC EC50(nM), CHOK1 cells stably expressing human CLDN18.2 [3]: 5.2 nM
CDC EC50(nM), NCI-N87 cells stably expressing human CLDN18.2 [3]: 17.4 nM

B4: 8k13-hz24 (antibody, V domains shown, not shown: large carriers)
VH: QVQLVQSGAEVKKPGSSVKVSCKASGYAFSNYWMNWVRQAPGQGLEWMGQIYPGSGDTKYSGKFQSRVTITADKSTNTAYMELSSLRSEDTAVYYCARFYYGNVMDYWGQGTLVTVSS
VL: DIVLTQSPDSLAVSLGERATINCKSSQTLLSGGNQKNYLTWYQQKPGQPPKLLIYWASTRESGVPDRFSGSGSGTDFTLTISSLQAEDLAVYYCQQGYSYPLTFGQGTKLEIK
ADCC reporter (Jurkat FcγRIIIa-FcεRIaγ / NFAT-luciferase) EC50(nM), target-expressing BxPC3 cells [2]: 0.304 nM
ADCC reporter (Jurkat FcγRIIIa-FcεRIaγ / NFAT-luciferase) EC50(nM), target-expressing CHOK1 cells [2]: 0.589 nM
ADCC reporter (Jurkat FcγRIIIa-FcεRIaγ / NFAT-luciferase) EC50(nM), target-expressing NCI-N87 cells [2]: 0.15 nM
CDC EC50(nM), BxPC3 cells stably expressing human CLDN18.2 [3]: 28.5 nM
CDC EC50(nM), CHOK1 cells stably expressing human CLDN18.2 [3]: 21.3 nM
CDC EC50(nM), NCI-N87 cells stably expressing human CLDN18.2 [3]: 57.7 nM

B5: IMAB362 (antibody, human IgG1, kappa, V domains shown)
VH: QVQLQQPGAELVRPGASVKLSCKASGYTFTSYWINWVKQRPGQGLEWIGNIYPSDSYTNYNQKFKDKATLTVDKSSSTAYMQLSSPTSEDSAVYYCTRSWRGNSFDYWGQGTTLTVSS
VL: DIVMTQSPSSLTVTAGEKVTMSCKSSQSLLNSGNQKNYLTWYQQKPGQPPKLLIYWASTRESGVPDRFTGSGSGTDFTLTISSVQAEDLAVYYCQNDYSYPFTFGSGTKLEIKR
ADCC reporter (Jurkat FcγRIIIa-FcεRIaγ / NFAT-luciferase) EC50(nM), target-expressing BxPC3 cells [2]: 0.106 nM
ADCC reporter (Jurkat FcγRIIIa-FcεRIaγ / NFAT-luciferase) EC50(nM), target-expressing CHOK1 cells [2]: 0.593 nM
ADCC reporter (Jurkat FcγRIIIa-FcεRIaγ / NFAT-luciferase) EC50(nM), target-expressing NCI-N87 cells [2]: 0.0909 nM
CDC EC50(nM), BxPC3 cells stably expressing human CLDN18.2 [3]: 52.2 nM
CDC EC50(nM), CHOK1 cells stably expressing human CLDN18.2 [3]: 30.4 nM
CDC EC50(nM), NCI-N87 cells stably expressing human CLDN18.2 [3]: 474 nM
